Assay results: patent publication US20120053119A1, “THERAPEUTIC METHOD FOR INCREASING PANCREATIC BETA CELL MASS” (priority 2009, published 2012)

Target: SDF-1 receptor CXCR4 on INS-1 clonal beta cells (UniProt O08565)
Test: cell-based or functional assay

Chain of SDF-1 receptor CXCR4 on INS-1 clonal beta cells (O08565 whole entry): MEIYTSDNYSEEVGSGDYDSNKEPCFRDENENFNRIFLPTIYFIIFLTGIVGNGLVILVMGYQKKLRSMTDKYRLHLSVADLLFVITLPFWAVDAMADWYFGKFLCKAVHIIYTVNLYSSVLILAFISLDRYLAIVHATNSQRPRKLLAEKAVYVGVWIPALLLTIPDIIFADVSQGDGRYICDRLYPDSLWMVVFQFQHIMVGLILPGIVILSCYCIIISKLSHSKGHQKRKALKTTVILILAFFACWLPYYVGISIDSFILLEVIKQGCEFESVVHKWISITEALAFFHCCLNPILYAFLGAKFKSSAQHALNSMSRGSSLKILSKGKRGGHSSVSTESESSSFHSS

Wnt signaling reporter assay (TOPflash/FOPflash luciferase) in INS-1 cells: 0.4 nM
Substance: stromal cell-derived factor-1 (SDF-1) (ligand)
